Laboratory results taken from patent US12649776B2, “Scaffold proteins and therapeutic nanoconjugates based on nidogen” (UNIVERSITAT AUTÒNOMA DE BARCELONA, priority 2019, dated 2026).

Legend:
[1] = Precipitation assay against increasing concentrations of ZnCl2; format: physicochemical; settings: increasing ZnCl2 up to 0.16 mM
Method: T22-NIDOmut3-H6, T22-NIDOmut4 T215V-H6 and T22-NIDOmut5-H6 were selected to proceed with the characterization due to their best production yields (24, 26 and 28 mg/L, respectively). At this point, volume-size distribution of each candidate was studied via DLS (FIG. 16). All three candidates were equivalent to the original T22-NIDOmut2-H6 in size before and after assembly into nanoparticles with ZnCl2 (0.04 mM). […] Precisely because Zn is used to mediate this assembly, it was deemed appropriate to perform a precipitation assay against increasing concentrations of ZnCl2, up to 0.16 mM, (FIG. 17A) to test whether the new proteins were resistant to Zn-induced precipitation or not.

[2] = Stability study in buffers: soluble protein loss after dialysis (Bradford, Nanodrop)
Method: For the stability study in other buffers, purified protein fractions were dialyzed against chosen FDA-approved buffer and carbonate as control. Protein concentration was initially set at 2.0 mg/ml in carbonate buffer and dialysed into 0.5 ml of each new buffer. Samples were centrifuged for 15 min 15000 g to remove precipitate and the remaining soluble protein concentration was determined by Bradford's assay and Nanodrop.
The stability of resulting proteins was studied in three FDA-approved buffers, and carbonate as control buffer.

[3] = Volume size distribution of protein nanoparticles and nanoconjugates by Dynamic Light Scattering (DLS); format: physicochemical; settings: for Nanoparticle size after assembly with ZnCl2 (DLS): assembled with ZnCl2 (0.04 mM and further concentrations up to 0.16 mM)
Method: Volume size distribution of all protein nanoparticles and nanoconjugates were determined by Dynamic Light Scattering (DLS) at 633 nm in a Zetasizer Nano ZS (Malvern Instruments) in triplicate.
Volume size distribution of protein nanoparticles was determined in a Zetasizer Nano ZS (Malvern Instruments) by Dynamic Light Scattering (DLS) at 633 nm in triplicates.
The integrity of the recombinant proteins was checked by mass spectrometry (MALDI-TOF), TGX (Tris-Glycine eXtended) Stain-Free acrylamide gels electrophoresis (BioRad) and Western Blot analysis using anti-His monoclonal antibody (1:1000; Santa Cruz, ref. 57598). Protein concentration was determined by Bradford (Biorad) assay with an Albumin (Roche) standard curve. GFP fluorescence emission (510 nm) was determined on purified proteins with a Cary Eclipse fluorescence spectrophotometer (Agilent Technologies) using an excitation wavelength of 450 nm. The volume and size distribution of nanoparticles were measured by dynamic light scattering (DLS) at 633 nm through a Zetasizer Nano ZS (Malvern Instruments) using quartz cuvettes.

[4] = Intrinsic fluorescence (Centre of Spectral Mass) vs temperature, unfolding temperature determination; format: physicochemical; settings: for Stability indexes Tm, Tonset and ΔT from CSM profiles: carbonate and FDA-approved buffers A9, B6, D1
Method: Fluorescence spectra were recorded in a Cary Eclipse spectrofluorimeter (Agilent Technologies, Mulgrave, Australia). A quartz cell with 10 mm path length and a thermostated holder was used. The excitation and emission slits were set at 5 nm. Excitation wavelength (λex) was set at 295 nm. Emission spectra were acquired within a range from 310 to 450 nm. The protein concentration was 0.2 mg/mL in carbonate buffer (166 mM NaCO3H, pH 8). In order to evaluate the conformation stability against heating we obtained the fluorescence spectra at each temperature at a 1° C./min scan rate and we calculated the Centre of Spectral Mass (CSM) for each spectrum. CSM is a weighted average of the fluorescence spectrum peak. Also it is related with the relative exposure of the Trp to the protein environment. The maximum red-shift in the CSM of the Trp, is compatible with a large solvent accessibility (Li, T. M.; et al., Biochemistry 1976, 15, 5571-80; Ruan, K and Weber, G, Biochemistry 1989, 28 (5), 2144-53 and Mohana-Borges, R. et al., Proceedings of the National Academy of Sciences of the United States of America 1999, 96 (14), 7888-93) and the protein unfolding.
The Centre of Spectral Mass (CSM) was calculated for each of the fluorescence emission according to Eq.1 (Lakowicz, J. R.; et al., 1991, Biophys Chem 39(1), 79-84), where Ii is the fluorescence intensity measure at the wavelength λi.
Midpoint unfolding temperature (Tm) was determined as the temperature value that correspond to the inflexion point of the CSM vs T° curve. We also determined the Tonset as the temperature where the CSM value begins to increase.

CXCR4+ HeLa cells = assay: In vitro cell viability of FdU nanoconjugates (CellTiter-Glo Luminescent Cell Viability Assay); format: cell-based, Human; settings: CXCR4+ HeLa cell line, 25 nM, 48 h
Method: HeLa cells (ATCC, CCL-2) were incubated in opaque 96-well plates in 90 μl of MEM alpha medium (Gibco) containing 10% of Fetal bovine serum (Gibco) in humidified atmosphere and 5% CO 2 at 37° C. Then, 10 μl of T22-NIDOmut3-H6-FdU and T22-NIDOmut2-H6-FdU nanoconjugates were added along with the control T22-NIDOmut3-H6 at 25 nM final concentration and incubated for additional 48 h. Cell viability was finally tested by CellTiter-Glo® Luminescent Cell Viability Assay (Promega) in a Victor 3 luminescent plate reader (Perkin Elmer). All samples were analyzed in triplicate and data expressed as mean % of viability (related to control cells)+/− standard error.

Row | Molecule | Loss of the initial soluble protein by Zn-induced precipitation [1] | % Precipitation (Bradford) ([2]; buffer A9) | % Precipitation (Nanodrop) ([2]; buffer A9) | % Precipitation (Bradford) ([2]; buffer B6) | % Precipitation (Nanodrop) ([2]; buffer B6) | % Precipitation (Bradford) ([2]; buffer Carbonate) | % Precipitation (Nanodrop) ([2]; buffer Carbonate) | % Precipitation (Bradford) ([2]; buffer D1) | % Precipitation (Nanodrop) ([2]; buffer D1) | Nanoparticle size (volume size distribution, DLS) ([3]; self-assembled material in storage (carbonate) buffer) | Stability indexes Tm, Tonset and ΔT from CSM profiles [4] | Solubility after dialysis ([2]; buffer A9) | Nanoparticle size after assembly with ZnCl2 (DLS) [3] | Cytotoxicity (CXCR4+ HeLa cells) | Solubility after dialysis ([2]; buffer B6) | Tm ([4]; *Tm value assuming that the maximal CSM values represent the entirely unfolding state of the protein) | Tonset, 1 ([4]; temperature where the CSM value begins to increase)
1 | T22-NIDOmut2-H6: Modular protein: N-terminal T22 CXCR4 ligand, linker, mutated human nidogen-1 G2 domain (NIDOmut2), C-terminal poly-histidine; SEQ ID NO: 61 (protein) RRWCYRKCYKGYCYRKCRGGSSRSSSPQRVNGKVKGRIFVGSSQVPIVFENTDLASYVVMNHGNSYTAISTIPETVGYSLLPLAPVGGIIGWMFAVEQDGFKNGFSITGGEFTRQAEVTFVGHPGNLVIKQRFSGIDEHGHLTIDTELEGRVPQIPFGSSVHIEPYTELYHYSTSVITSSSTREYTVTEPERDGASPSRIYTYQWRQTITFQECVHDDSRPALPSTQQLSVDSVSVLYNQEEKILAYALSNSIGPVREGSPDAKHHHHHH | up to 66% | 12.7% | 29.0% | None | None | 17.6% | 23.9% | 84.1% | 86.5% | ~12 nm | – | – | – | – | – | – | –
2 | T22-NIDOmut5-H6: T22 fusion protein, SEQ ID NO: 113 (protein, T22-NIDOmut5-H6) RRWCYRKCYKGYCYRKCRGGSSRSSSPQRVNGKVKGRIFVGSSQTPIVFENTDLASYVVMNHGNSYTAISTIPETVGYSLLPLAPVGGIIGWMFAVEQDGFKNGFSITGGEFTRQAEVTFQGHPGNLVIKQRFSGIDEKGNLTIDTELEGRVPQIPEGSSVHIEPYTELYHYSTSVITSSSTREYTVTEPERDGASPSRIYTYQWRQTITFQESTHDDSRPALPSTQQLSVDSVSVLYNQEEKILAYALSNSIGPVREGSPDAKHHHHHH | – | None | None | 15.4% | 26.6% | 60.4% | 24.2% | 50.1% | 62.4% | – | Second protein with better stability indexes | best suited | nanoparticles of higher size | – | – | – | –
3 | T22-NIDOmut3-H6: T22-linker-NIDOmut3-H6 fusion protein, SEQ ID NO: 106 (protein, T22-NIDOmut3-H6) RRWCYRKCYKGYCYRKCRGGSSRSSSPQRVNGKVKGRIFVGSSQVPIVFENTDLASYVVMNHGNSYTAISTIPETVGYSLLPLAPVGGIIGWMFAVEQDGFKNGFSITGGEFTRQAEVTFVGHPGNLVIKQRFSGIDEKGNLTIDTELEGRVPQIPFGSSVHIEPYTELYHYSTSVITSSSTREYTVTEPERDGASPSRIYTYQWRQTITFQECVHDDSRPALPSTQQLSVDSVSVLYNQEEKILAYALSNSIGPVREGSPDAKHHHHHH | – | 10.25% | 15.4% | 5.4% | None | 17.6% | 24.5% | 83.6% | 84.3% | – | shows the highest values | – | 17 nm | did not cause any cytoxicity | remained highly soluble | – | –
4 | STMH6: Isolated hexahistidine-tagged stefin A (protein, UniProt P01040 1-98, looked up, His6 tag, Isolated hexahistidine-tagged stefin A) Cystatin-A: MIPGGLSEAKPATPEIQEIVDKVKPQLEEKTNETYGKLEAVQYKTQVVAGTNYYIKVRAGDNKYMHLKVFKSLPGQNEDLVLTGYQVDKNKDDELTGF | – | – | – | – | – | – | – | – | – | – | – | – | – | – | – | ≅76° C.* | 70 °C
